Test system: C6orf203 mature form (Homo sapiens)
Assay: EMSA
Details: 100 nM RNA, 0-2.56 uM protein; EMSA buffer, salt, pH and temperature not given (performed as previously described, ref 19); 100 nM fluorescein-labeled RNA; protein purified in 25 mM Tris-HCl …

mt-tRNAPro showed a Kd of 290 nM.
